Data taken from publication PMC5044835, “Crystal Structure of the Human Astrovirus Capsid Protein” (Journal of Virology, 2016).

Molecular target: the molecule itself
Assay: not stated; data not shown; oligomeric state of recombinant VP70 expressed in insect cells or E. coli

Row | Protein | stoichiometry N
1 | astrovirus VP70 expressed in insect cells (natural protein, construct, tags and purification are not described; source: insect cells) MASKSDKQVTVEVNNNGRSRSKSRARSQSRGRGRSVKITVNSHNKGRRQNGRNKYQSNQRVRKIVNKQLRKQGVTGPKPAICQTATATLGTIGSNTTGATEIEACILLNPVLVKDATGSTQFGPVQALGAQYSMWKLKYLNVRLTSMVGASAVNGTVVRISLNPTSTPSSTSWSGLGARKHLDVTVGKNAVFKLKPSDLGGPRDGWWLTNTNDNASDTLGPSIEIHTLGQTMSSYQNTQFTGGLFLVELSSAWCFTGYAANPNLVNLVKSTDKSVNVTFEGSAGTPLIMNVPEHSHFARTAVEHSSLSTSLSRAGGESSSDTVWQVLNTAVSAAELVTPPPFNWLVKGGWWFVKLIAGRARTGARRFYVYLSYQDALSNKPALCTGGVPASARQSNPVRTTLQFTQMNQPSLGHGATPMTFGRSIPEPGEQFRVLLTVGPPMAPNTANSQNWVNKTIVPPENQYTVKIGIDLEHYTTMQGFTPVESVSWYTADFQPSDEPSPIPGLYARVNNTKKADVYGVQQFKSSHTNNRHQITSVFLVRVTTSFQVINYTSYFIRGAESGSNVSNLKIRDQTYHTPLQFTQGKWYLLTSTVMHDGPTSSGWVWMNQELTNNIAYRVDPGMMYLITPPPAASQLYFELHTVLPQARSEEPETYVD | 2
2 | astrovirus VP70 expressed in E. coli (natural protein, construct, tags and purification are not described; source: E. coli) MASKSDKQVTVEVNNNGRSRSKSRARSQSRGRGRSVKITVNSHNKGRRQNGRNKYQSNQRVRKIVNKQLRKQGVTGPKPAICQTATATLGTIGSNTTGATEIEACILLNPVLVKDATGSTQFGPVQALGAQYSMWKLKYLNVRLTSMVGASAVNGTVVRISLNPTSTPSSTSWSGLGARKHLDVTVGKNAVFKLKPSDLGGPRDGWWLTNTNDNASDTLGPSIEIHTLGQTMSSYQNTQFTGGLFLVELSSAWCFTGYAANPNLVNLVKSTDKSVNVTFEGSAGTPLIMNVPEHSHFARTAVEHSSLSTSLSRAGGESSSDTVWQVLNTAVSAAELVTPPPFNWLVKGGWWFVKLIAGRARTGARRFYVYLSYQDALSNKPALCTGGVPASARQSNPVRTTLQFTQMNQPSLGHGATPMTFGRSIPEPGEQFRVLLTVGPPMAPNTANSQNWVNKTIVPPENQYTVKIGIDLEHYTTMQGFTPVESVSWYTADFQPSDEPSPIPGLYARVNNTKKADVYGVQQFKSSHTNNRHQITSVFLVRVTTSFQVINYTSYFIRGAESGSNVSNLKIRDQTYHTPLQFTQGKWYLLTSTVMHDGPTSSGWVWMNQELTNNIAYRVDPGMMYLITPPPAASQLYFELHTVLPQARSEEPETYVD | 2
